We go through three molecules from paper PMC12022973, “Proteomimetic Strategy for the Modulation of Intrinsically Disordered Protein MYC” (Journal of the American Chemical Society, 2025).

The target of this test is T1, recombinant human MYC^353–437 protein (human).
T1 construct: MYC, human, residues 353-437; Aggregates above 5 μM; also called His6-MYC^353–437; source: recombinant
The experiment in a line: fluorescence polarisation; fluorescein-labeled CHDs with His6-MYC^353–437, His6-MAX or the MYC/MAX complex; MYC up to 5 μM (aggregation above). The following applies: both partners purified.

Positions of bridges follow the written chain, without caps; N, C: chain ends. Chains are numbered I, II in the order given. No end group written: not given here.

B1: fluorescein-labeled CHD^Max-3 (negative control) (designed binder)
chain 1: LREKAATLQWCIEELRK
chain 2: LRRKAETAQWEIEELC
modifications: bridge I:11-II:16; not fully specified (bridges); also: fluorescein label, chain and position not given here
Turning to B1, the Kd is more than 5000 nM.

B2: fluorescein-labeled CHD^Max-1 (cross-linked helix dimer derived from MAX) (designed binder)
chain 1: LREKIATLQWCIEELRK
chain 2: LRRKNETHQWEIEELC
modifications: bridge I:11-II:16; not fully specified (bridges); also: fluorescein label, chain and position not given here
B2: the Kd stood at 350 ± 17 nM.

B3: fluorescein-labeled CHD^Max-2 (designed binder)
chain 1: LREKIATLQWCIEELRK
chain 2: LEARIETHQWRIRELCE
modifications: bridge I:11-II:16; not fully specified (bridges); also: fluorescein label, chain and position not given here
On to B3, for which the Kd amounted to 880 ± 53 nM.
